{"source": "paper PMC6020246", "about": "“Molecular characterization of a novel chitinase CmChi1 from Chitinolyticbacter meiyuanensis SYBC-H1 and its use in N-acetyl-D-glucosamine production” (Biotechnology for Biofuels, 2018)", "tested_on": "T1, CC(=O)N[C@H]1[C@H](Oc2ccc([N+](=O)[O-])cc2)O[C@H](CO)[C@@H](O[C@@H]2O[C@H](CO)[C@@H](O)[C@H](O)[C@H]2NC(C)=O)[C@@H]1O", "T1 construct": "full length 658 residues with predicted signal peptide (residue 23) kept, C-terminal His6 (pET-28a(+)), E. coli BL21(DE3); peptides AATPTPVSAT, EDYKVLKNA, LTFINYAFGNVYQK", "experiment": "p-nitrophenol release, Lineweaver-Burk plot", "format": "biochemical, Chitinolyticbacter meiyuanensis", "conditions": "50 mM sodium citrate pH 5.2, 50 °C, 5 min, apparent, text b64 prints the same number as mg/mL, table unit agrees with printed kcat/Km 73.5 mL/s/μmol", "from_the_text": "p-nitrophenol release, Lineweaver-Burk plot on CmChi1"}
{"substance": "CmChi1 (Chitinolyticbacter meiyuanensis)", "values": [{"measurement": "Km", "result": "580 ± 40", "unit": "µM"}, {"measurement": "Vmax", "result": "108.6 ± 3.3 (μmol/min/L)"}, {"measurement": "kcat", "result": "42.5 ± 1.4", "unit": "s⁻¹"}, {"measurement": "kcat/Km", "result": "73.5 ± 2.6 (mL/s/μmol)"}]}
